Measurements reported in patent US20250297004A1, “NECTIN-4 BINDING AGENTS” (INNATE PHARMA, priority 2022, published 2025).
Positions count from the first letter of the chain named.

Tests used:
Assay in all cases: Epitope mapping using Nectin-4 point mutants
Type in all cases: binding
[1] = biological target: T1, human Nectin-4 Mutant 1 (S58P/G59D/Q61A/N106D/P107A) (Homo sapiens, UniProt Q96NY8, G59D/N106D/P107A/Q61A/S58P)
T1 construct: expressed in transfected cells; host or cells: HEK293T
T1 sequence (Q96NY8 32-510 S58P/G59D/Q61A/N106D/P107A): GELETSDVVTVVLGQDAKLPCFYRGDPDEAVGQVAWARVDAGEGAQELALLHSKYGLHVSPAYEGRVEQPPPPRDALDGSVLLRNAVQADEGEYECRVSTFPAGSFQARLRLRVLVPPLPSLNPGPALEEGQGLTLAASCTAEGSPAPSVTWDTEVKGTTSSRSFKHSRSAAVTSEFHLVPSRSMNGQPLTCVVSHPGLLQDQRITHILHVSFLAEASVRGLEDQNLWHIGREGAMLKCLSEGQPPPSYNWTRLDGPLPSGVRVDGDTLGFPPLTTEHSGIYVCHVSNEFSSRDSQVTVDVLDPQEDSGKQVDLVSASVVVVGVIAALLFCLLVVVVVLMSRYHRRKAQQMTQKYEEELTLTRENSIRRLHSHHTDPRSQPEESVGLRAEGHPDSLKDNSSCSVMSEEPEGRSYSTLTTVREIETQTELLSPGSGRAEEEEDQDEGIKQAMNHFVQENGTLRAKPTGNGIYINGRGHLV
Excerpt: (§1) Combined with the published structures of the Nectin-4 domains, Nectin-4 mutations at surface exposed amino acids residues were designed. Nectin-4 domain structure was modelled based on Protein Data Bank reference: 4FRW (domains V et C1). Human Nectin-4 used was NCBI Reference Sequence: NP_112178.2, mouse Nectin-4 used was NCBI Reference Sequence: AAL79833.1, cynomolgus Nectin-4 used was NCBI Reference Sequence: XP_005541277.1, rat Nectin-4 used was NCBI Reference Sequence: NP_001102546.1. The cells expressing the Nectin-4 mutants are then be used for testing anti-Nectin-4 antibodies for loss of binding to different Nectin-4 mutants to identify antibodies that bind to the same site on Nectin-4. […] FIGS. 8A and 8B show different view of a molecular model of the human Nectin-4 protein, indicating the position of substituted residues in mutants 1, 2, 3, 4, 5, 6, 7, 8 and 9.
(§2) Nectin-4 mutants were generated by PCR. The sequences amplified were run on agarose gel and purified using the Macherey Nagel PCR Clean-Up Gel Extraction kit. The purified PCR products generated for each mutant were then ligated into an expression vector, with the ClonTech InFusion system. The vectors containing the mutated sequences were prepared as Miniprep and sequenced. After sequencing, the vectors containing the mutated sequences were prepared as Midiprep using the Promega PureYield™ Plasmid Midiprep System. HEK293T cells were grown in DMEM medium (Invitrogen), transfected with vectors using Invitrogen's Lipofectamine 2000 and incubated at 37° C. in a CO2 incubator for 48 hours prior to testing for transgene expression. The targeted amino acid mutations are shown in Table 13 below, listing the residue present in wild-type Nectin-4/position of residue/residue present in mutant Nectin-4, with position reference being to the Nectin-4 protein with leader peptide shown in SEQ ID NO: 1.
(§3) (+) means that antibodies-Nectin-4 association occurs.

[2] = biological target: T2, human Nectin-4 Mutant 8 (T190A/T191Q/S193A) (Homo sapiens, UniProt Q96NY8, S193A/T190A/T191Q)
T2 construct: expressed in transfected cells; host or cells: HEK293T
T2 sequence (Q96NY8 32-510 T190A/T191Q/S193A): T1 sequence (Q96NY8 32-510 S58P/G59D/Q61A/N106D/P107A) with P27S, D28G, A30Q, D75N, A76P, T159A, T160Q, S162A
Excerpt: as §1, §2, §3

[3] = biological target: T3, human Nectin-4 Mutant 4 (A72P/G73N/G75S) (Homo sapiens, UniProt Q96NY8, A72P/G73N/G75S)
T3 construct: expressed in transfected cells; host or cells: HEK293T
T3 sequence (Q96NY8 32-510 A72P/G73N/G75S): T1 sequence (Q96NY8 32-510 S58P/G59D/Q61A/N106D/P107A) with P27S, D28G, A30Q, A41P, G42N, G44S, D75N, A76P
Excerpt: as §1, §2, §3

[4] = biological target: T4, human Nectin-4 Mutant 9 (L150S/S152A/Q234R/I236S) (Homo sapiens, UniProt Q96NY8, I236S/L150S/Q234R/S152A)
T4 construct: expressed in transfected cells; host or cells: HEK293T
T4 sequence (Q96NY8 32-510 L150S/S152A/Q234R/I236S): T1 sequence (Q96NY8 32-510 S58P/G59D/Q61A/N106D/P107A) with P27S, D28G, A30Q, D75N, A76P, L119S, S121A, Q203R, I205S
Excerpt: as §1, §2, §3

B1: N41 (antibody, V domains shown)
VH: QVQLKQSGPGLVQPSQSLSITCTVSGFSLTNYGVHWVRQSPGKGLEWLGVIWSGGSTDYNAAFISRLSISKDTSKSQVFFKMNSLQADDTAIYYCARELIHAMDNWGQGTSVTVSS
VL: DIQMTQSPASLSVSVGETVTITCRASENIYSNLAWYQQKQGNSPQLLVFAATNLADGVPSRFSGSGSGTQYSLKINSLQSEDFGTYYCQHFWGTPTFGGGTKLEIK
**Q.** For B1, which “association with Mutant 1” value [1] is on record?
**A.** −

**Q.** And the “association with Mutant 8” value [2]?
**A.** +

**Q.** And the “association with Mutant 4” value [3]?
**A.** +

**Q.** And the “association with Mutant 9” value [4]?
**A.** +

B2: 5E7 (antibody, V domains shown)
VH: QVQLQQPGAELVKPGASVKLSCKASGYIFTSYWMHWVKQRPGQGLEWIGEIDPSDSYTNYNQKFKGKATLTLDKSSSTTYMQLSSLTSEDSAVYYCVRGYGNYGDYWGQGTTLTVSSASTKGP
VL: DVVMTQAAFSNPVTLGTSASISCRSSKSLLHSNGITYLYWYLQKPGQSPQLLIYQMSNLASGVPDRFSSSGSGTDFTLRISRVEAEDVGVYYCAQNLELPWTFGGGTKLEIKRTVAAP
**Q.** What does the source list for B2?
**A.** association with Mutant 1 [1]: +; association with Mutant 8 [2]: +; association with Mutant 4 [3]: +; association with Mutant 9 [4]: +
